Laboratory results taken from PMC6488192 (2019).

B1: RNA Editing Helicase 2 (REH2) wild type with TAP tag [T. brucei] / REH2-Associated Factor 1 (^H2F1), endogenous [T. brucei (endogenous in Lister 427 29-13 procyclic cells)] (parent complex)
chain 1: FQTQEITPGEVSLVEATDESDRAFGETRKEDFSFDGSSEFPECFKDTKHVDTFSRARVVSFIKRFSQGAVTSSSEVFEGREIVNDNGTPLYHSRVRLPFRSHTGELWAHGVACNSKDAELLAAMHAEHIIDEFGYHIYTLPSMQRKHAEAARKAGRWAPLPDELERTQSPVRVPLPLRRIVDRDETEGGKWLLIDMRPNHYISPSHTLLSPCLFDTTAVHRIKSFLDEHKLSFAQLCTSVEEPGEGGGQSWYVATVSLPPELSTFSEIKAQGKALNREAAVTLACMHAELVLDAHSICLYPSDSTKQKQHALAAWSYGRPAPLPGEDQKNPSHVVCPLPLKQLAVRREDRISCISYEEDIIRRHRALTDQTCEFIETPTLDSSAVEQLKQFLQRENVPRTDPFLVEEVNGYYKATVVLPLPDLYGIRGGVGIAMNATDARVLAAMHAIDVLNILGFHLMDGSTARAEWIAARRARGESVPADTRDPNVLSPSGRRRVATGNSSTQTPSSSTNARSVAAAPDVGTSDPTAPQNTKRRVAKRARVADAQPTEEKDAANSDSDEATSYLKMRETVSKELWNLEPDSPDGYIMVSPTDPETRTQFEQALYSPRQVDLGSKSRIKNYLASVGRRIEEVFFVQRIEAEDNGGQAICRCAVNLPVPRRFGDRIALGEAVDPKDAENLAAMHAELILDTLGIPIYTDSALQRLHVRLCAKCGRNAPVEYSESVAAATASPPPLRREVVGSIHWENKSKRRRAAISVQKGGGPANSQETTSALREDEEPLIAPKERREYTFVPEKDLDLVSRARVHYYLRRNGIAKLEPEYRMELRGLGNVLHIAELTLPLPDVYGKRVAHGSALTKRDAEILCWMHAEQILDAVGLCLFDNLPMLQRRHVECVKRLGRWAPLVSENATKPPHTPTPLPLTLGTTQEKPQYPTPPTNVRQDWEQYAQECQRYIEINVMREHNIFYEMGKTPRTGDETYDAALAEVESMPIDPDAKTVLQRYCNVANVNYPTFWKSRTVGPISCRVCLTTIEVPGHEYLRASGVAWNKEASQRQAAMHALALLRRVEPDFAEFEKQIKAEVVDKVNLVDPAAVLDEEAPVLRRTARVSKKSLGNWDPVSKDFSHEGKVRIIELFTVCFGLQPPLVRHLNRRSGSFVQHFTVVEVTDEDGKTWVGTGRDAGPRFNEPAAFDDLFSKLSRGVQGFQALMDLIRAHPHLDPEHIANVSLTDSQKERILKAVDGLPMVEEEDVAHPEQWADADSDRGIGIMALIAMDASQRAQESQELEAKLQAKLTNEEYQTRYASQRQRLRIYEKRDEILRAISSNQIVIICGTTGCGKTTQVPQYILDDMTEKGMGGDCSIVITQPRRLSAVSIARRVAAERLESIGETCGYSIRLDAKPGRNINFCTSGVLLRLLHSAPLLNGINYLIIDEIHERDINSDFLLILLRQLLHRRKDLHVILMSATLQADQFGKYFGNAPIINVEGYVHAVEEMYLEDLVPIATERNVMTPLLKEAAAALERNGAADGFCPTVVPPTAKYGFLEATADIDYMTIQIAIDHAVRSLDLTDSSILVFLPGWDEINRAKEILERNAKFHIICLHSSVGAEEQMRCFLPAPEGKIKLILSTNIAESGVTIDDVAAVIDVGRGKEKSYVMRKGTTSVGRNEMGSMSQLVTVYASRANCVQRRGRVGRTRPGMCIRLYSKKHFQSLHDFQTPEMLRTHLDSLCLQILALDLGDPADFLQQALEPPSSDHIEAAMKRLHELGATTSTRQLTPLGLRLSRLPVAPKVGKMVIMGAILRCLDSALTIAGVSDTDVFISTREHREAVRLHKEDLSYGTQSDVIASVNAFNFWVTSHYAKTPAEVVYDLQERMLSVPQLLTVSKYKQQFFEIVAGSGFIHMKQNYKDAKNKDRADIFVDQSEYSADSLNVGLVKCVVASGLFPNVVMNRGKRLMRNKLANRLDPSSASVVHRTSQENIGQPYFVYDELVKSSESERLLVRDLTNVSLWTILLMGTSSMPVTYRDDLNLAVVDEWIMFRATFGTLELIRKFKRALNVCLGRKFMNPNDEENNAKLEELRCIIKELVCTPFKPNDLAEKPWEEKGVIIEPCTEPKGGSSEAEKTHVNSSHTPTTSAEAGGDS
chain 2: CHHPLRIPSVQLAAPRSHTHEDIAYASCPACSRVVHMCDMLTHLITAHRELDQTHCRKMCTERLALYERVIGVPLKKSELTSSGRRVLDFLPTVLPTGYMCNWCDRRSDVYATRDKFLKHVADVHTDIDLEEVEPHVPLPPRGVVVEKSNGDGGPQPTRRLNGVVAVAEKSEPINAVPRILGISLPRGVDRPLKATAQFSDTEFPCELCNRTFNSEIDLLQHLETRHPDGTAEGPAGVDSAAIADVAQFSAKEATTGGDQRVHVICDLCVSSSKVYKMPSALFSHIRFKHPNEDAAFHVERLIREQKTVSSFVCTVCQKAFASAAALDGHFNSKHAEQGEAQNVVGRVTANNCWWCHDCEKGFSSAKGLHGHMQNKHGLSSQTHPCPACKRVFADIYSLEEHLSLQHKTIRLSDIGLLTHVKCSTCERFFLSHEDLHRHAVKHHKKDPRAPAQPFEAPTSASHVAASTSAAVPSEVEATASPQGPRKVKKRKKTTEVSEVTS

Variants of: B1
Test: IgG pulldown of TAP-tagged REH2, western blot quantification; parent: 1; read off a plot

Variant | ratio to parent
chain 1 R1993A | ~0.92
chain 1 H1968E | ~0.97
chain 1 K1048A, chain 1 A1056D | ~1
chain 1 R1949A | ~1.1
